Measurements as given in paper PMC4598023 (PLoS ONE, 2015).
Bridges are numbered along the chain shown (N, C = ends). Where no end group is shown, it is not given here.

Tests used:
[1] = Pharmacokinetics after subcutaneous administration in mice (serum amylin by ELISA); assay type: in vivo
Protocol: Swiss male mice (8 weeks old; n = 4 per group) were administrated of free or monoPEGylated human amylin (both at 400 μg peptide / kg body weight) by subcutaneous route. At the indicated time interval, blood was collected with glass capillary tubes from retro-orbital access and the serum was separated. The concentration of amylin in the plasma was evaluated by ELISA (Merck Millipore, cat # EZHA-52K) by following the manufacturer protocol. The sensitivity of the ELISA assay kit for the monoPEGylated human amylin product was similar to the non-conjugated human amylin as inferred from control analytical curves. In case needed, the mice plasma samples were diluted accordingly in order to achieve the desired concentration range of the ELISA kit. Glucagon was evaluated from the same serum samples, by using an ELISA kit (Merck Millipore, Cat # EZGLU-30K) according to instructions of the manufacturer.
Continuous lines are best fitting of single-exponential decay function to data. b) Modulation of glucagon. […] The raw data can be found in S2 File.

[2] = molecular target: T1, Fluorescein-Labelled Murine Amylin (Mus musculus, UniProt P12968); experiment: Isothermal binding assay, fluorescence anisotropy (amylin self-assembly); settings: PBS pH 7.4, 25°C; for Anisotropy: 50 nM labelled murine amylin, mean of five measurements
T1 sequence (P12968 38-74 limits assumed): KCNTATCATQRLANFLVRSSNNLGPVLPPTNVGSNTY
Protocol: The proteins (CTR, RAMP and murine amylin) were labeled with fluorescein isothiocyanate (FITC; Sigma-Aldrich; 0.2 mM final concentration, from stock in DMSO at 5 mM freshly prepared) in 20 mM Na2HPO4, 300 mM NaCl, pH 7.0, for 60 min at 25°C protected from light. The reaction was quenched by adding an excess of Tris-HCl. The free fluorescein was removed by chromatography with a Sephadex G25 desalting column (GE Healthcare, Brazil). The labeling efficiency, final yield and protein quantification were calculated as described elsewhere. The labeling efficiency was below 1 mol FITC:1 mol protein for all labeling procedures. Labeled proteins were stored until use protected from light at -20°C for no longer than 3 months.
The fluorescence measurements were conducted in a Spectramax M5 (Molecular Devices) microplate reader, with excitation and emission set at 480 nm and 520 nm respectively, with cut-off filter 515 nm. The results represent the mean and the standard error of the mean (SEM) of five measurements. Binding data analysis was performed with SigmaPlot 12.5 (Systat Software, Inc., CA, USA).
Fig 4 Amylin self-assembly and interaction with co-receptors. […] Assays were conducted in PBS, pH 7.4, 25°C, in the presence of 50 nM FITC-labelled proteins (amylin, CTR–1 or RAMP–3). Ex 480 nm, Em 520 nm, filter 515 nm. The raw data can be found in S2 File.

[3] = Morphologic analysis of aggregation products by transmission electron microscopy (TEM); assay type: physicochemical; settings: negative stain 2% uranyl acetate; products of the aggregation kinetics
Description: Samples from aggregation kinetic assay were applied to 300 mesh, Formvar-carbon-coated Cu grids (Electron Microscopy Science, USA), followed by negative stain with 2% uranyl acetate, pH 4.8, for 30–60 s.
Scale bar = 200 nm. The raw data can be found in S2 File.

[4] = (unit not given), Swiss male mice, s.c., 400 μg peptide/kg

Question: Which results are given for “PEGylated human amylin: human amylin monoconjugated at the N-terminal Lys1 region with 5 kDa methoxyl polyethylene glycol succinimidyl carbonate (mPEGsc5k) (KCNTATCATQRLANFLVHSSNNFGAILSSTNVGSNTY-NH2; disulfide 2-7; also: one mPEG 5 kDa (mPEGsc5k) on a Lys1 amino group)”?
Answer: Half Life (One phase decay, best-fit value) [1, 4]: 2.988; Tau (One phase decay, best-fit value) [1, 4]: 4.311; half-life in vivo ([1]; male, Swiss, mouse, in vivo, sc): 2.98 h; self-assembly with amylin (in words) ([2]; fluorescence anisotropy, 50 nM FITC-labelled protein): PEGylation did not abolish the assembly; Anisotropy ([2]; ligand 0.0492 µM): 0.0707; Anisotropy ([2]; ligand 0.1229 µM): 0.0637; Anisotropy ([2]; ligand 0.3072 µM): 0.0575; Anisotropy ([2]; ligand 0.768 µM): 0.0698; Anisotropy ([2]; ligand 1.92 µM): 0.0836; Anisotropy ([2]; ligand 4.8 µM): 0.232; Anisotropy ([2]; ligand 12 µM): 0.2936; Anisotropy ([2]; ligand 30 µM): 0.27; fibrils by TEM after aggregation assay [3]: no fibrils were observed
